Data: patent US9018171B2, “Uses of an immunomodulatory protein (GMI) from Ganoderma microsporum” (Mycomagic Biotechnology Co., Ltd., priority 2010, dated 2015)
Like-named read-outs stand apart in the source and are kept apart here.

Tests used:
Format in all cases: cell-based
UACC-62 = assay: NCI60 in vitro screening, Melanoma
HL-60(TB) = tested on: HL-60(TB)
NCI/ADR-RES = assay: NCI60 in vitro screening, Ovarian Cancer
SNB-19 = assay: NCI60 in vitro screening, CNS Cancer
ACHN = assay: NCI60 in vitro screening, Renal Cancer
SF-539 = assay: NCI60 in vitro screening, CNS Cancer
SNB-75 = assay: NCI60 in vitro screening, CNS Cancer
NCI-H23 = tested on: NCI-H23
PC-3 = assay: NCI60 in vitro screening, Prostate Cancer

B1: GMI: immunomodulatory protein from Ganoderma microsporum, amino acid sequence SEQ ID NO: 3, manufactured by Mycomagic Biotechnology Co., Ltd. (protein, listed as Ganoderma microsporum)
chain: MSDTALIFTLAWNVKQLAFDYTPNWGRGRPSSFIDTVTFPTVLTDKAYTYRVVVSGKDLGVRPSYAVESDGSQKINFLEYNSGYGIADTNTIQVYVIDPDTGNNFIVAQWN
TGI (UACC-62; UACC-62): >1.25E2 | Percent Growth (UACC-62; UACC-62, Log10 Concentration 0.1): 99% | Percent Growth (UACC-62; UACC-62, Log10 Concentration 1.1): 106% | Percent Growth (UACC-62; UACC-62, Log10 Concentration 2.1): 68% | Percent Growth (UACC-62; UACC-62, Log10 Concentration −0.9): 101% | Percent Growth (UACC-62; UACC-62, Log10 Concentration −1.9): 105% | Growth Percent (UACC-62; UACC-62, one dose): 115.96% | TGI (HL-60(TB)): >1.25E2 | Percent Growth (HL-60(TB); Log10 Concentration 0.1): 105% | Percent Growth (HL-60(TB); Log10 Concentration 1.1): 105% | Percent Growth (HL-60(TB); Log10 Concentration 2.1): 92% | Percent Growth (HL-60(TB); Log10 Concentration −0.9): 99% | Percent Growth (HL-60(TB); Log10 Concentration −1.9): 100% | Growth Percent (HL-60(TB); one dose): 116.48% | TGI (NCI/ADR-RES): >1.25E2 | Percent Growth (NCI/ADR-RES; Log10 Concentration 0.1): 105% | Percent Growth (NCI/ADR-RES; Log10 Concentration 1.1): 81% | Percent Growth (NCI/ADR-RES; Log10 Concentration 2.1): 19% | Percent Growth (NCI/ADR-RES; Log10 Concentration −0.9): 100% | Percent Growth (NCI/ADR-RES; Log10 Concentration −1.9): 102% | GI50 (NCI/ADR-RES; in µg/mL): 3.94E1 | TGI (SNB-19; SNB-19): 4.27E1 | Percent Growth (SNB-19; SNB-19, Log10 Concentration 0.1): 95% | Percent Growth (SNB-19; SNB-19, Log10 Concentration 1.1): 66% | Percent Growth (SNB-19; SNB-19, Log10 Concentration 2.1): −58% | Percent Growth (SNB-19; SNB-19, Log10 Concentration −0.9): 98% | Percent Growth (SNB-19; SNB-19, Log10 Concentration −1.9): 98% | Growth Percent (SNB-19; SNB-19, one dose): 58.70% | GI50 (SNB-19; SNB-19, in µg/mL): 1.69E1 | LC50 (SNB-19; SNB-19, in µg/mL): 1.08E2 | TGI (ACHN): 3.62E1 | Percent Growth (ACHN; Log10 Concentration 0.1): 103% | Percent Growth (ACHN; Log10 Concentration 1.1): 36% | Percent Growth (ACHN; Log10 Concentration 2.1): −42% | Percent Growth (ACHN; Log10 Concentration −0.9): 99% | Percent Growth (ACHN; Log10 Concentration −1.9): 109% | GI50 (ACHN; in µg/mL): 7.65E0 | Growth Percent (ACHN; one dose): −33.94% | TGI (SF-539; SF-539): 6.02E1 | Percent Growth (SF-539; SF-539, Log10 Concentration 0.1): 102% | Percent Growth (SF-539; SF-539, Log10 Concentration 1.1): 80% | Percent Growth (SF-539; SF-539, Log10 Concentration 2.1): −37% | Percent Growth (SF-539; SF-539, Log10 Concentration −0.9): 111% | Percent Growth (SF-539; SF-539, Log10 Concentration −1.9): 108% | Growth Percent (SF-539; SF-539, one dose): 48.19% | GI50 (SF-539; SF-539, in µg/mL): 2.26E1 | TGI (SNB-75; SNB-75): 1.45E1 | Percent Growth (SNB-75; SNB-75, Log10 Concentration 0.1): 97% | Percent Growth (SNB-75; SNB-75, Log10 Concentration 1.1): 5% | Percent Growth (SNB-75; SNB-75, Log10 Concentration 2.1): −68% | Percent Growth (SNB-75; SNB-75, Log10 Concentration −0.9): 101% | Percent Growth (SNB-75; SNB-75, Log10 Concentration −1.9): 95% | Growth Percent (SNB-75; SNB-75, one dose): −45.73% | GI50 (SNB-75; SNB-75, in µg/mL): 4.04E0 | LC50 (SNB-75; SNB-75, in µg/mL): 7.14E1 | TGI (NCI-H23; NCI-H23): >1.25E2 | Percent Growth (NCI-H23; NCI-H23, Log10 Concentration 0.1): 106% | Percent Growth (NCI-H23; NCI-H23, Log10 Concentration 1.1): 89% | Percent Growth (NCI-H23; NCI-H23, Log10 Concentration 2.1): 66% | Percent Growth (NCI-H23; NCI-H23, Log10 Concentration −0.9): 101% | Percent Growth (NCI-H23; NCI-H23, Log10 Concentration −1.9): 99% | Growth Percent (NCI-H23; NCI-H23, one dose): 91.82% | TGI (PC-3; PC-3): 3.87E1 | Percent Growth (PC-3; PC-3, Log10 Concentration 0.1): 98% | Percent Growth (PC-3; PC-3, Log10 Concentration 1.1): 73% | Percent Growth (PC-3; PC-3, Log10 Concentration 2.1): −76% | Percent Growth (PC-3; PC-3, Log10 Concentration −0.9): 102% | Percent Growth (PC-3; PC-3, Log10 Concentration −1.9): 104% | Growth Percent (PC-3; PC-3, one dose): 79.73% | GI50 (PC-3; PC-3, in µg/mL): 1.79E1 | LC50 (PC-3; PC-3, in µg/mL): 8.34E1
